# Test results: patent US20240190960A1 (Chugai, published 2024)
# B1: CLA0334 Fab fragment (from CLA0334VH-F760mnP17/CLA0334VL-k0C) (Fab, V domains shown)
# VH: QEQLEESGGDLVKPEGSLTLTCTASGFSLSVSYWICWVRQAPGKGLEWIACIYAGSTGSTWYANWAKGRFTISKTSSTTVTLQMTSLTAADTATYFCARDSGWNAFDLWGPGTLVTVSS
# VL: DVVMTQTPASVSAAVGGTVTIKCQASQSIGSNLAWYQQKSGHPPNLLIYEASGLASGVPLRFSGSGSGTQFTLTISDLECADAATYYCQSYYYSPSVSVHYAFGGGTEVVVKR
# notes: Fab prepared from the full antibody with the Pierce Fab Preparation Kit; also called clamping antibody CLA0334
# B2: IC17 one arm (antibody, human IgG1, kappa, L234A L235A, N297A)
# heavy chain (IC17Hdk-pE22Hh): QVQLQQSGPQLVRPGASVKISCKASGYSFTSYWMHWVNQRPGQGLEWIGMIDPSYSETRLNQKFKDKATLTVDKSSSTAYMQLSSPTSEDSAVYYCALYGNYFDYWGQGTTLTVSSASTKGPSVFPLAPSSKSTSGGTAALGCLVKDYFPEPVTVSWNSGALTSGVHTFPAVLQSSGLYSLSSVVTVPSSSLGTQTYICNVNHKPSNTKVDKKVEPKSCDKTHTCPPCPAPEAAGGPSVFLFPPKPKDTLMISRTPEVTCVVVDVSHEDPEVKFNWYVDGVEVHNAKTKPREEQYASTYRVVSVLTVLHQDWLNGKEYKCKVSNKALPAPIEKTISKAKGQPREPQVYTLPPSRCELTKNQVSLSCAVKGFYPSDIAVEWESNGQPENNYKTTPPVLDSDGSFFLVSKLTVDKSRWQQGNVFSCSVMHEALHNHYTQKSLSLSPDYKDDDDK
# light chain (IC17L-k0): DIQMTQSSSSFSVSLGDRVTITCKASEDIYNRLAWYQQKPGNAPRLLISGATSLETGVPSRFSGSGSGKDYTLSITSLQTEDVATYYCQQYWSTPYTFGGGTKLEVKRTVAAPSVFIFPPSDEQLKSGTASVVCLLNNFYPREAKVQWKVDNALQSGNSQESVTEQDSKDSTYSLSSTLTLSKADYEKHKVYACEVTHQGLSSPVTKSFNRGEC
# antibody fragment having no variable region (Kn010): not shown
# notes: also called negative control anti-KLH antibody IC17 one arm (IC17Hdk-pE22Hh/IC17L-k0//Kn010)
# Legend:
# [1] = target: T1, CD3ε epitope-fused CE115HA146 (CE115HAGP13-rabIgG/GLS3000-rabk); experiment: SPR (Biacore T200), ligand captured on protein A, Fab 0-400 nM as analyte, 37 C
# T1 construct: stands for the antigen/antibody complex; Rabbit constant regions; also called CE115HAPG13
# T1 sequence (heavy, as listed by the source, chain 1 of 2): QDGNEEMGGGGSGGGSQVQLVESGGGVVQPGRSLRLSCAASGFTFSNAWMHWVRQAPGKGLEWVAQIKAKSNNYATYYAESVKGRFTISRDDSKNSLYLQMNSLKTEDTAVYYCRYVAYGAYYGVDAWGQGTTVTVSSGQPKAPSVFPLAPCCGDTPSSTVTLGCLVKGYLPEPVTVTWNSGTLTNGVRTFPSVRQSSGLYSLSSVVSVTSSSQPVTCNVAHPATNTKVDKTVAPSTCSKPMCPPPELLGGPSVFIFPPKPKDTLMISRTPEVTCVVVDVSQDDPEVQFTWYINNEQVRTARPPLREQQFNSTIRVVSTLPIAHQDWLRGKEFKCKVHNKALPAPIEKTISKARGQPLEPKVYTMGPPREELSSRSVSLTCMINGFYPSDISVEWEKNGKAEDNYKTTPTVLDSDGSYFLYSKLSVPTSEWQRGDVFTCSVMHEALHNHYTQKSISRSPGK
# T1 sequence (light, as listed by the source, chain 2 of 2): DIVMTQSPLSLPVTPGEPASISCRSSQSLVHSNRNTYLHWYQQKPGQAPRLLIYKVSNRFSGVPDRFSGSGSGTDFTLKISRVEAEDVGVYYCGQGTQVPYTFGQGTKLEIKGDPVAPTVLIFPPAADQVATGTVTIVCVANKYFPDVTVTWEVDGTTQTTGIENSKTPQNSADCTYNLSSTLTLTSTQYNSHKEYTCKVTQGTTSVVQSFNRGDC
# Experimental: (§1) SuRe protein A (GE Healthcare) prepared at 25 μg/mL using Acetate4.5 (GE Healthcare) was immobilized on sensor chip CM4 at approximately 1000 RU per flow cell using an amine coupling kit (GE Healthcare).
# (§2) The sensor chip was regenerated by passing Glycine1.5 and 25 mM NaOH, each at a flow rate of 30 μL/min for 15 seconds. The dissociation constant KD (M) was calculated based on the association rate constant ka (1/Ms) and the dissociation rate constant kd (1/s), which are kinetic parameters calculated from the sensorgram obtained by the measurement. Biacore T200 Evaluation Software (GE Healthcare) was used for calculation of each parameter.
# [2] = target: T2, CD3ε epitope-fused CE115HA056 (CE115HAGP12-rabIgG/GLS3000-rabk); experiment: as above
# T2 construct: rabbit constant regions; also called CE115HAPG12
# T2 sequence (heavy, as listed by the source, chain 1 of 2): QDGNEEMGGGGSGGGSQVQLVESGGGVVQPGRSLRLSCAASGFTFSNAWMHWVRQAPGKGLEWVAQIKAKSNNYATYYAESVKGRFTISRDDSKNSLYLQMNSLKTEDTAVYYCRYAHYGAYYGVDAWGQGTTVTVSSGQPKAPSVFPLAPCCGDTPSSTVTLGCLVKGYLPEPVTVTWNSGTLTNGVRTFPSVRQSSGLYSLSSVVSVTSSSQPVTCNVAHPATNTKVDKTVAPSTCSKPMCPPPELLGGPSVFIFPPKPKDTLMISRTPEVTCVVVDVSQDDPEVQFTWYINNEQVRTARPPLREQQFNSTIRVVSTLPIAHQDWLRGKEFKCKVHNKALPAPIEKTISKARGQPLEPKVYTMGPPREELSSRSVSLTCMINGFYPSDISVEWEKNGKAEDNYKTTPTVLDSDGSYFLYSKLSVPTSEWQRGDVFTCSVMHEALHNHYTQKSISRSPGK
# T2 sequence (light, as listed by the source, chain 2 of 2): as the sequence (light, as listed by the source, chain 2 of 2) above
# Experimental: as §1, §2
# [3] = target: T3, Biotinylated human CD3εδ heterodimer (Fc-fused human CD3ε / Fc-fused human CD3δ) (human, biotin on the Avi tag (BirA)); experiment: BLI (Octet RED384); CD3εδ on streptavidin sensor, IC17 one arm for 120 s, then 1 µM Fab in HBS-EP+ for 120 s
# T3 chain 1: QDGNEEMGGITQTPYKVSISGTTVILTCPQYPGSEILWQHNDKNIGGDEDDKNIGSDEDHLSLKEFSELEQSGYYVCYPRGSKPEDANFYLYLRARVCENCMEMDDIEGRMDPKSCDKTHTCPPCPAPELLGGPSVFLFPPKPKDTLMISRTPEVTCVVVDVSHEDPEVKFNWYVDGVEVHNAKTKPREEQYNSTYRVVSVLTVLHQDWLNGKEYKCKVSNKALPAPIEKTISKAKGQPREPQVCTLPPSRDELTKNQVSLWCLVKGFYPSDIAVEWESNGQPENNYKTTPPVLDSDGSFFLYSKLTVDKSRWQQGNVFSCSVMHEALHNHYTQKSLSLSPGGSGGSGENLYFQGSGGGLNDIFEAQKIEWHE
# T3 chain 2: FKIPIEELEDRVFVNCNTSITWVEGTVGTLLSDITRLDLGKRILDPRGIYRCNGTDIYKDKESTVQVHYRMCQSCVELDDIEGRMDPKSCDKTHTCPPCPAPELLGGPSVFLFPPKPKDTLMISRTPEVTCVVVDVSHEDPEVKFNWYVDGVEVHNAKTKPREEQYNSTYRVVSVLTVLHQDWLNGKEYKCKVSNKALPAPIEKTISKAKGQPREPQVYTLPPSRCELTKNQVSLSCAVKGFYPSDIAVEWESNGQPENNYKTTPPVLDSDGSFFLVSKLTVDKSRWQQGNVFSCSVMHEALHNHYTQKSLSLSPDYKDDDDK
# Experimental: (§3) Using an Octet RED 384 (ForteBio), a streptavidin sensor (ForteBio) was reacted with CD3εδ prepared at 0.2 μM in ACES at 37° C. for 300 seconds. […] Response values were extracted every three seconds, and graphs were depicted using Microsoft Excel 2013 (Microsoft).
# [4] = target: CD3 antibody CE115HA146 (CE115HA146-F760mnP17/GLS3000-k0); experiment: SPR (Biacore), 37 C; ligand antibody captured on SuRe protein A chip (1000 RU), Fab as analyte at 100 nM for 180 s; amount of binding per 1 RU of ligand
# CD3 antibody CE115HA146 (CE115HA146-F760mnP17/GLS3000-k0), sequence (heavy, as listed by the source): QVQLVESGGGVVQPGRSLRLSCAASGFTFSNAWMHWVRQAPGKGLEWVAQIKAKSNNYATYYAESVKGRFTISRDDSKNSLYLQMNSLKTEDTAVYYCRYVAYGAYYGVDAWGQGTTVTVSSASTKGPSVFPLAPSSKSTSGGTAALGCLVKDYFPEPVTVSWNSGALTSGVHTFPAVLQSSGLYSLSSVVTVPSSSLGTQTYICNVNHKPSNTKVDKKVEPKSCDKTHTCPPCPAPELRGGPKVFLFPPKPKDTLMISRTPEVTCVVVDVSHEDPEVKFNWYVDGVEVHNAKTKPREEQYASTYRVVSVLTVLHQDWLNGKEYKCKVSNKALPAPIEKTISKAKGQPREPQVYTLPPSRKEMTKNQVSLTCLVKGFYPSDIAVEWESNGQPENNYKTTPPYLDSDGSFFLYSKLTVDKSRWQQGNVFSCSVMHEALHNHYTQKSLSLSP
# Experimental: as §1
# (§4) First, to evaluate the binding specificity of the clamping antibodies, a ligand was reacted at 37° C. for 60 seconds at a flow rate of 10 μL/min to capture 1000 RU, and an analyte prepared at 100 nM was allowed to act for 180 seconds at a flow rate of 30 μL/min, and the amount of binding was measured.
# [5] = target: T4, negative control IC17 (IC17Hdk-F760mnP17/IC17L-k0); experiment: as above
# T4 construct: also called anti-KLH antibody
# Experimental: as §1, §4
# [6] = target: T5, CD3ε epitope-fused GPC3 antibody (hGC33VHGP01-rabCH1hG1m/hGC33VL-rabk); experiment: as above
# T5 construct: control for recognition of the peptide alone
# T5 sequence (VH, as listed by the source, chain 1 of 2): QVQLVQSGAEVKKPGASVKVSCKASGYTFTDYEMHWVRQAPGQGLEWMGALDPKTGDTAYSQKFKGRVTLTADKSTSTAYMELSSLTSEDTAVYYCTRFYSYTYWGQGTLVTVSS
# T5 sequence (VL, as listed by the source, chain 2 of 2): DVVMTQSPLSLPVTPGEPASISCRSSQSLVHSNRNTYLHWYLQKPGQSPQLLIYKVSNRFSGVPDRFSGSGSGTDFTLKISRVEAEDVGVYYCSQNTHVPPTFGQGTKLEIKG
# Experimental: as §1, §4
# [7] = target: CD3 antibody CE115HA000 (CE115HA000-F760mnP17/GLS3000-k0); experiment: as above
# CD3 antibody CE115HA000 (CE115HA000-F760mnP17/GLS3000-k0), sequence (VH, as listed by the source, chain 1 of 2): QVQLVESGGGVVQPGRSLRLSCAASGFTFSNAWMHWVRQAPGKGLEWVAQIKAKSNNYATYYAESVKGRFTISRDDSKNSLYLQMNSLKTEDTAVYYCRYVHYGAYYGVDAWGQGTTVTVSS
# CD3 antibody CE115HA000 (CE115HA000-F760mnP17/GLS3000-k0), sequence (VL, as listed by the source, chain 2 of 2): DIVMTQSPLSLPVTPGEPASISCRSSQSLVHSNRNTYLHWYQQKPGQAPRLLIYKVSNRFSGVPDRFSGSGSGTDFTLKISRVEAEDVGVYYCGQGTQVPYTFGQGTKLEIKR
# Experimental: as §1, §4
# [8] = target: CD3 antibody CE115HA056 (CE115HA056-F760mnP17/GLS3000-k0); experiment: as above
# CD3 antibody CE115HA056 (CE115HA056-F760mnP17/GLS3000-k0), sequence (heavy, as listed by the source): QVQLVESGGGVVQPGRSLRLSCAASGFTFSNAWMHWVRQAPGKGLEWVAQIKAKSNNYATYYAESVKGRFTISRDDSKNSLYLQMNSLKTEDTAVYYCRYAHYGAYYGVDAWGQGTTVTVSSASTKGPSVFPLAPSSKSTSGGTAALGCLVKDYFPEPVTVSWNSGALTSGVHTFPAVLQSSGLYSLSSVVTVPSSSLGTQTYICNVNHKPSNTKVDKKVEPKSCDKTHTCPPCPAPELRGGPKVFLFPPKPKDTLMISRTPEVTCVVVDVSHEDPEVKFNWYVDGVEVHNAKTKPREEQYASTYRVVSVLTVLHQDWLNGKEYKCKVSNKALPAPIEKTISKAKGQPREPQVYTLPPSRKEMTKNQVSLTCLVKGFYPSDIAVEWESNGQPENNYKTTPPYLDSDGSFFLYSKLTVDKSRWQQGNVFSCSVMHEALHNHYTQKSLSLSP
# Experimental: as §1, §4
# [9] = target: T3, Biotinylated human CD3εδ heterodimer …; experiment: BLI (Octet RED384), 37 C; biotinylated CD3εδ on streptavidin sensor, one-arm antibody in solution for 120 s
# Experimental: as §3
binder,measurement,setting,value
B1,Kd,[1],150 nM
same,Kd,[2],110 nM
same,binding result,[3],no binding (tested: 1 µM)
same,binding result,[4],no binding (tested: 100 nM)
same,binding result,[5],no binding (tested: 100 nM)
same,binding result,[6],no binding (tested: 100 nM)
same,binding result,[7],no binding (tested: 100 nM)
same,binding result,[8],no binding (tested: 100 nM)
B2,binding result,[9],no binding
